Measurements reported in patent US20240116985A1 (published 2024).
Starred links: 1 amine or outer side, 2 acyl side, 3 side chain; linkers in the order of their positions; H or OH if unused. Positions of bridges follow the written chain, without caps; N, C: chain ends. Non-standard residues stand in square brackets, D forms with d. Primed or numbered codes have the meaning given here. B5(11) = 2,2-bis(4-pentenyl)glycine = 2-amino-2-(pent-4-en-1-yl)hept-6-enoic acid (stitching residue, bears both staples), C=CCCCC(CCCC=C)(N[*:1])C(=O)[*:2]; B5(16) = 2-amino-2-(pent-4-en-1-yl)hept-6-enoic acid = 2,2-bis(4-pentenyl)glycine (stitching residue), C=CCCCC(CCCC=C)(N[*:1])C(=O)[*:2]; B5(4) = 2,2-bis(4-pentenyl)glycine = 2-amino-2-(pent-4-en-1-yl)hept-6-enoic acid (stitching residue), C=CCCCC(CCCC=C)(N[*:1])C(=O)[*:2]; B5(5) = 2,2-bis(4-pentenyl)glycine, 2-amino-2-(pent-4-en-1-yl)hept-6-enoic acid (stitching residue), C=CCCCC(CCCC=C)(N[*:1])C(=O)[*:2]; B5″ = 2,2-bis(4-pentenyl)glycine, stitching residue, C=CCCCC(CCCC=C)(N[*:1])C(=O)[*:2]; B5(28) = 2,2-bis(4-pentenyl)glycine, C=CCCCC(CCCC=C)(N[*:1])C(=O)[*:2]; Trp(7-F) = N[C@@H](Cc1c[nH]c2c(F)cccc12)C(=O)O; Bta = N[C@@H](Cc1csc2ccccc12)C(=O)O; αAllylPro = C=CC[C@@]1(C(=O)O)CCCN1; NMeH = CN[C@@H](Cc1c[nH]cn1)C(=O)O; S8 = C=CCCCCCC[C@](C)(N)C(=O)O; NMeS = CN[C@@H](CO)C(=O)O

T1: full-length beta-Catenin (Uniprot ID P35222) (Homo sapiens (Human), UniProt P35222 1-781)
T1 construct: The assay protocol says 'full-length beta-Catenin (Uniprot ID P35222)'; also called bCat; B-Catenin
T1 sequence: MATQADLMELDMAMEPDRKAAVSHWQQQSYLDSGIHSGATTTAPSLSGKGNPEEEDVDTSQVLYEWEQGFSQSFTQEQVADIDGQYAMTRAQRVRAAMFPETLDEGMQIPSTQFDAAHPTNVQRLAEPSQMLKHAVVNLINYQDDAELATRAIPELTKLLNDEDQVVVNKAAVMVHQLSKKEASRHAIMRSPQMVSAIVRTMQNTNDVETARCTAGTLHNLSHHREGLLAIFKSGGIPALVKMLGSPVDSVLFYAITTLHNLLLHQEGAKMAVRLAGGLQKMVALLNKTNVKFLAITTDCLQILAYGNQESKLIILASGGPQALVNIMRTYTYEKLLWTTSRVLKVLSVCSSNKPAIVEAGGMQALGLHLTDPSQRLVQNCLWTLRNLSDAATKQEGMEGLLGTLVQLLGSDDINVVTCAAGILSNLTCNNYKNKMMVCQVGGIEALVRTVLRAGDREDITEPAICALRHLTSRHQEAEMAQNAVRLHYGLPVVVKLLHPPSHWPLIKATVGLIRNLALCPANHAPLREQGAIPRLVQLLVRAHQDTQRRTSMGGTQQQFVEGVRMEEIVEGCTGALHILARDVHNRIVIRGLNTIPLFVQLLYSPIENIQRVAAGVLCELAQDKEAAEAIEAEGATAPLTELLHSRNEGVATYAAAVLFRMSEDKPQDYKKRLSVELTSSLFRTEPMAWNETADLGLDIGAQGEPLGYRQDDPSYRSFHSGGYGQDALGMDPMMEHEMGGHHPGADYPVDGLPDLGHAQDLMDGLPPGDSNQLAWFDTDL

T2: full-length beta-Catenin (Uniprot ID P35222) (Homo sapiens (Human), UniProt P35222 2-781)
T2 construct: Also used here for the endogenous beta-catenin of the DLD1 TCF reporter cells; also called bCat; B-Catenin
T2 sequence: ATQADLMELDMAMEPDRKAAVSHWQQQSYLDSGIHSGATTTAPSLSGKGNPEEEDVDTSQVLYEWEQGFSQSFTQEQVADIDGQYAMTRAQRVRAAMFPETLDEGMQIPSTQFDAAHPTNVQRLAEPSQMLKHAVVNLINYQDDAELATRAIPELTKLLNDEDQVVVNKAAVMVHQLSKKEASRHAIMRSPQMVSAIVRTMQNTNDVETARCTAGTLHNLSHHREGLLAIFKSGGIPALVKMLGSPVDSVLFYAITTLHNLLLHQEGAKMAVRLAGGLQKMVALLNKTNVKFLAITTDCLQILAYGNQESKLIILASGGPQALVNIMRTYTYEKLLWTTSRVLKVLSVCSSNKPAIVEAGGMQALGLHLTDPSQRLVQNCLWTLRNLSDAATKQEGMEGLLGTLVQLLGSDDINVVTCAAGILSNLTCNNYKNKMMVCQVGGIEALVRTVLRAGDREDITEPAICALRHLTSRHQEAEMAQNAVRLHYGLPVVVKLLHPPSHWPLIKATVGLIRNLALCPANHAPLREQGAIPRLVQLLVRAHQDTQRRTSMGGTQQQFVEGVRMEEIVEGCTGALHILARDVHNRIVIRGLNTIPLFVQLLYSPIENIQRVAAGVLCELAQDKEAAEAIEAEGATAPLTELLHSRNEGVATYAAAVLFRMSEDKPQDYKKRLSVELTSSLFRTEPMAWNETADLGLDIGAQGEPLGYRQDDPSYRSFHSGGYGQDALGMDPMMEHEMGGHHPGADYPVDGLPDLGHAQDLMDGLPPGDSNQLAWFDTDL


molecular target: T1, full-length beta-Catenin (Uniprot ID …); assay: fluorescence polarization competition; full-length beta-catenin, competitor 5FAM-TCF4(10-53) probe
Description: (§1) The plate was incubated protected from light for 60 minutes at 20° C. prior to read. Reads were performed on a CLARIOstar plate reader (BMG Labtech) in duplicate, and data were fitted to a 1:1 binding model with hill slope using an in-house script. All provided concentrations are final concentrations.

Binder | IC50 [nM]
Ac-[αAllylPro]DA[B5(16)]DEAAFV[S8]F[Trp(7-F)]Q-NH2 (staple 1-4, 4-11, also called Ac-PL3-Asp-Ala-B5-Asp-Glu-Ala-Ala-Phe-Val-S8-Phe-7FW-Gln-NH2) [I-166] | 2160
Ac-[αAllylPro]DA[B5(4)]DEAAFV[S8]F[Bta]Q-NH2 (staple 1-4, 4-11, also called Ac-PL3-Asp-Ala-B5-Asp-Glu-Ala-Ala-Phe-Val-S8-Phe-BztA-Gln-NH2) [I-144] | 146
Ac-[αAllylPro]DI[B5(5)]DDAAFQ[S8]FWH-NH2 (staple 1-4, 4-11, also called Ac-PL3-Asp-Ile-B5-Asp-Asp-Ala-Ala-Phe-Gln-S8-Phe-Trp-His-NH2) [I-174] | 1760
XDIXDEAAFQXFWQ (not fully specified; N-terminal acetyl (Ac); PL3 at 1, B5 at 4, S8 at 11 (staples PL3-B5 and B5-S8 by olefin metathesis); C-terminal amide (NH2), also called Ac-PL3-Asp-Ile-B5-Asp-Glu-Ala-Ala-Phe-Gln-S8-Phe-Trp-Gln-NH2) [I-180] | 56

molecular target: T2, full-length beta-Catenin (Uniprot ID …); assay: as above
Description: as §1

Binder | EC50 [nM]
Ac-[αAllylPro]DL[B5(28)]DEAAFN[S8]F[Bta]S-NH2 (staple 1-4, 4-11, Stapled peptide composition) [I-751] | 29
Ac-[αAllylPro]DL[B5(4)]DEAAFN[S8]F[Bta]S-NH2 (staple 1-4, 4-11; also: olefin E/Z not assigned, earlier-eluting staple isomer, Stapled peptide composition) [I-750] | 43
Ac-[αAllylPro]DL[B5(4)]DEAAFN[S8]F[Bta][dT]-NH2 (staple 1-4, 4-11; also: earlier-eluting HPLC peak (staple isomer), Stapled peptide composition) [I-754] | 115
Ac-[αAllylPro]DL[B5(4)]DEAAFN[S8]F[Bta][dN]-NH2 (staple 1-4, 4-11; also: later-eluting HPLC peak (staple isomer), Stapled peptide composition) [I-758] | 47
XDLXDEAAFNXFXT (not fully specified; as printed: Ac-PL3-Asp-Leu-B5-Asp-Glu-Ala-Ala-Phe-Asn-S8-Phe-BztA-Thr-NH2; N-terminal Ac, C-terminal NH2; stapled by olefin metathesis PL3(1)-B5(4) and B5(4)-S8(11), Stapled peptide composition) [I-749] | 40
XDLXDEAAFNXFXT (not fully specified; as printed: Ac-PL3-Asp-Leu-B5-Asp-Glu-Ala-Ala-Phe-Asn-S8-Phe-BztA-Thr-NH2; N-terminal Ac, C-terminal NH2; stapled by olefin metathesis PL3(1)-B5(4) and B5(4)-S8(11), Stapled peptide composition) [I-748] | 54
Ac-[αAllylPro]DL[B5(4)]DEAAFN[S8]F[Bta][dT]-NH2 (staple 1-4, 4-11; also: later-eluting HPLC peak (staple isomer), Stapled peptide composition) [I-755] | 88
Ac-[αAllylPro]DL[B5(11)]DEAAFN[S8]F[Bta][NMeH]-NH2 (staple 1-4, 4-11; not fully specified, Stapled peptide composition) [I-747] | 2390
Ac-[αAllylPro]DL[B5(4)]DEAAFN[S8]F[Bta][dN]-NH2 (staple 1-4, 4-11; also: earlier-eluting HPLC peak (staple isomer), Stapled peptide composition) [I-757] | 64
Ac-[αAllylPro]DL[B5(4)]DEAAFN[S8]F[Bta][dS]-NH2 (staple 1-4, 4-11, Stapled peptide composition) [I-756] | 56
Ac-[αAllylPro]DL[B5″]DEAAFN[S8]F[Bta][NMeS]-NH2 (staple 1-4, 4-11, Stapled peptide composition) [I-760] | 608
Ac-[αAllylPro]DL[B5(4)]DEAAFN[S8]F[Bta][NMeS]-NH2 (staple 1-4, 4-11; also: earlier-eluting HPLC peak (staple isomer), Stapled peptide composition) [I-759] | 1530
